In US12534541B2, “Anti-PTK7 antibody and uses thereof” (MABCARE THERAPEUTICS, priority 2023, dated 2026):

Legend:
Human PTK7 protein = biological target: T1, Human PTK7 protein (Homo sapiens, UniProt Q13308); assay: Relative binding activity to human PTK7 by ELISA
T1 construct: purchased Acrobiosystems PT7-H52H3
T1 sequence (Q13308 31-1070): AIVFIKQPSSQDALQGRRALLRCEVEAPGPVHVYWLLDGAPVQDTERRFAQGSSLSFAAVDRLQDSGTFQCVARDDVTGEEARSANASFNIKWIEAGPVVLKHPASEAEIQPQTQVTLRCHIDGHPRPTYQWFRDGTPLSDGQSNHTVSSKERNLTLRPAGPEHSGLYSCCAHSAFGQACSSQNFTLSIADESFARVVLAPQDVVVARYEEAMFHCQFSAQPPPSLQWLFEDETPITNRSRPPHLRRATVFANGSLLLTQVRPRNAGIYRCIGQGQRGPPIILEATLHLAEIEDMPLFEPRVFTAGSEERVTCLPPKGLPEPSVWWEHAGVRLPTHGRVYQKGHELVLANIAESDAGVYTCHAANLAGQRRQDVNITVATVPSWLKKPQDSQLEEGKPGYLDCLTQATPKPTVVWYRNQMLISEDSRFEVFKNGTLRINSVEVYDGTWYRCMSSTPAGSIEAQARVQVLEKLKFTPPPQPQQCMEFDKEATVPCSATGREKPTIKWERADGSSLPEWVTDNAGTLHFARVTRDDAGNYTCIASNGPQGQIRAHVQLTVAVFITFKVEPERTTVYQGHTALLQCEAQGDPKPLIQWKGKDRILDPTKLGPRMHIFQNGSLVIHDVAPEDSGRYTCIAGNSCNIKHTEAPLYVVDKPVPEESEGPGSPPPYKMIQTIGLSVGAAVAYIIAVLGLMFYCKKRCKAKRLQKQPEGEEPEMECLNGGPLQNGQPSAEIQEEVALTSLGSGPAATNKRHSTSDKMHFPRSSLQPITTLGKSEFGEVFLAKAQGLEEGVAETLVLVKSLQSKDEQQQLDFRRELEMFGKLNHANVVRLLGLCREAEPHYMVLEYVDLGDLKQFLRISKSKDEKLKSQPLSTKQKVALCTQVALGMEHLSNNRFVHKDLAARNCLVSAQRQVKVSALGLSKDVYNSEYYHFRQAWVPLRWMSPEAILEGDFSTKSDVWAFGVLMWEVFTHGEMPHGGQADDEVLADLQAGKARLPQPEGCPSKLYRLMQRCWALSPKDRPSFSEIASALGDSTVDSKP
Experimental: (§1) Human PTK7 protein (Catalog No. PT7-H52H3, Acrobiosystems), monkey PTK7 protein (Catalog No. PT7-C52H3, Acrobiosystems), and murine PTK7 protein (Catalog No. PT7-M52H3, Acrobiosystems) were incubated at 4° C. overnight and immobilized onto a 96-well plate. The plate was then blocked by incubating at 37° C. with 1% BSA in PBS for 1 h. After blocking, the plate was washed 3 times with PBST (PBS containing 0.05% Tween 20). Serial dilutions of anti-PTK7 antibody as prepared in Example 2 of the present disclosure was prepared in a binding buffer (PBS containing 0.05% Tween20 and 0.5% BSA) and incubated with the immobilized proteins at 37° C. for 1 h. After binding, the plate was washed 3 times with PBST, incubated with peroxidase-labeled donkey anti-human IgG (Jackson ImmunoResearch) diluted at 1/15,000 in the binding buffer at 37° C. for 1 h, washed again, developed with TMB and terminated with 1M H2SO4. The absorbance at 450 nm-620 nm was measured.

monkey PTK7 protein = assay: Relative binding activity to monkey PTK7 by ELISA
Experimental: as §1

murine PTK7 protein = biological target: T2, murine PTK7 protein (Mus musculus, UniProt Q8BKG3); assay: Relative binding activity to murine PTK7 by ELISA; settings: immobilized protein
T2 construct: purchased Acrobiosystems PT7-M52H3
T2 sequence (Q8BKG3 23-1062): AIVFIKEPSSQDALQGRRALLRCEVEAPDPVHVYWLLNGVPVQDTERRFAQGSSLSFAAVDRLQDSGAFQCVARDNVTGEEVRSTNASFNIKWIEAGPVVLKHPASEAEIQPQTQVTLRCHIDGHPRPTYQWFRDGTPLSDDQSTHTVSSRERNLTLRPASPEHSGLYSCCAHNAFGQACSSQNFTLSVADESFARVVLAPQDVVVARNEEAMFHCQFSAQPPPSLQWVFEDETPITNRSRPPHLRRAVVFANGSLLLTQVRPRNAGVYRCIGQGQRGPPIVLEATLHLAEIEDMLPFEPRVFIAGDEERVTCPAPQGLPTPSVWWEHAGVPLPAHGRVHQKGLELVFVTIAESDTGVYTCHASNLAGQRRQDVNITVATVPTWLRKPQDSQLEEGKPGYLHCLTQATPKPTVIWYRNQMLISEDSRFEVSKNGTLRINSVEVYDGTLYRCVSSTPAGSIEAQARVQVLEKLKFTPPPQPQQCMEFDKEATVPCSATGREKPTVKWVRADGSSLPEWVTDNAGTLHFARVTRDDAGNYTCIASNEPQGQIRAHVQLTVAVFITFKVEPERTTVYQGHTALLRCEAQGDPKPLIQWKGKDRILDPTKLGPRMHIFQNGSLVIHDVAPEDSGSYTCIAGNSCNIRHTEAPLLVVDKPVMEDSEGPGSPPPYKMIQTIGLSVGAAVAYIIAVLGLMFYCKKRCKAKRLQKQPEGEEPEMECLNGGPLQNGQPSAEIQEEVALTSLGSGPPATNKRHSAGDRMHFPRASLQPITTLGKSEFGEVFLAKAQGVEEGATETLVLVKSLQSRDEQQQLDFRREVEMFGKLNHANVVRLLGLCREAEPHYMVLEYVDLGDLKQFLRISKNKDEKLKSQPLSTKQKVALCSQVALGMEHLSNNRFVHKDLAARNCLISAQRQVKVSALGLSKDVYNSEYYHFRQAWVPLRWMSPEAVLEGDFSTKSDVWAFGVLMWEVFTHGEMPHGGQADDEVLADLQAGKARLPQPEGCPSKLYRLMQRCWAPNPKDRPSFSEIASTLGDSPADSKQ
Experimental: as §1

B1: ch13: human-murine chimeric PTK7 antibody, VH SEQ ID NO: 20, VL SEQ ID NO: 19 (antibody, V domains shown)
VH: QVQLQQSGAELVRPGVSVKISCKGSGYTFTDYGMHWLKQSHAKSLEWIGVISPYYGDVTYNQKFKGKATMTVDKSSSTAYMELARLTSEDSAIYYCARGMGYWGQGTSVTVSS
VL: DVQITQSPSYLAASPGETITINCRASQSISKYLAWYQEKPGKTNKLLIYSGSTLQSGIPSRFSGSGSGTDFTLTISSLEPEDFAMYYCQQHNEYPWTFGGGTKLEIK
affinity compared with h6M24 (positive control antibody) (Human PTK7 protein; human PTK7): significantly superior over that of h6M24 | binding to human PTK7 protein (Human PTK7 protein; immobilized protein): specifically bind | binding to monkey PTK7 protein (monkey PTK7 protein; immobilized protein): specifically bind | affinity compared with h6M24 (positive control antibody) (monkey PTK7 protein; monkey PTK7): significantly superior over that of h6M24 | cross-reaction with mouse PTK7 (murine PTK7 protein): neither ch13 nor h6M24 antibodies cross-react
